Reference: PMC3728920, “In situ structural analysis of the Yersinia enterocolitica injectisome” (eLife, 2013)

Biological target: the molecule itself
Test: cryo-EM structure; cryo-electron tomography and sub-volume averaging (~3 nm) of purified YscC (0.2 mg/ml) reconstituted into liposomes of E. coli polar lipids at 5:1 lipid-to-protein ratio; oligomers isolated beforehand in DDM by sucrose gradient, MonoQ and Superose 6 gel filtration

B1: YscC (outer membrane secretin of the Yersinia enterocolitica injectisome) (natural protein)
chain: QELDWLPIPYVYVAKGESLRDLLTDFGANYDATVVVSDKINDKVSGQFEHDNPQDFLQHIASLYNLVWYYDGNVLYIFKNSEVASRLIRLQESEAAELKQALQRSGIWEPRFGWRPDASNRLVYVSGPPRYLELVEQTAAALEQQTQIRSEKTGALAIEIFPLKYASASDRTIHYRDDEVAAPGVATILQRVLSDATIQQVTVDNQRIPQAATRASAQARVEADPSLNAIIVRDSPERMPMYQRLIHALDKPSARIEVALSIVDINADQLTELGVDWRVGIRTGNNHQVVIKTTGDQSNIASNGALGSLVDARGLDYLLARVNLLENEGSAQVVSRPTLLTQENAQAVIDHSETYYVKVTGKEVAELKGITYGTMLRMTPRVLTQGDKSEISLNLHIEDGNQKPNSSGIEGIPTISRTVVDTVARVGHGQSLIIGGIYRDELSVALSKVPLLGDIPYIGALFRRKSELTRRTVRLFIIEPRIIDEGIAHHLALGNGQDLRTGILTVDEISNQSTTLNKLLGGSQCQPLNKAQEVQKWLSQNNKSSYLTQCKMDKSLGWRVVEGACTPAQSWCVSAPKRGVL
notes: YscC, secretin of the Ysc injectisome, Yersinia enterocolitica E40; full-length yscC with a stop codon amplified from the pYVe40 plasmid and cloned into pBAD/mycHisA (pMA6); The signal peptide is probably cut on export (surmise); The introduction cites 12-15 subunits for secretin rings; also called secretin YscC; YscC oligomers
Question: Does B1 bind?
Answer: Result: binds
